From patent US20210009693A1 (MABSPACE BIOSCIENCES SUZHOU, published 2021)

T1: hPD-L2-Fc (human, UniProt Q9BQ51 20-219)
T1 construct: Acrobiosystems PD2-H5251; also called human PD-L2 protein; not shown: Fc tag
T1 sequence (looked up): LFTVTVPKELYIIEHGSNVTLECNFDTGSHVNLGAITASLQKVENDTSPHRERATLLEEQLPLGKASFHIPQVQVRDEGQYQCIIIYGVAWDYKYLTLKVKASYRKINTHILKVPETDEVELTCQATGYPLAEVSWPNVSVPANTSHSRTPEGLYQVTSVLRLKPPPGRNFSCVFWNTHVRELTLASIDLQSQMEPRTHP


What was measured:
[1] = biological target: T2, Recombinant Human PD-L1/CD274 Protein (hPD-L1-his) (human, UniProt Q9NZQ7 19-238); assay: ELISA, coated hPD-L1-his, acidic wash and incubation after binding at pH7.4
T2 construct: range 19-238; ACRO Biosystem PD1-H5229, made in HEK293; also called human PD-L1-his; hPD-L-his
T2 sequence (Q9NZQ7 other isoform, or with tags, fused parts or gaps limits assumed): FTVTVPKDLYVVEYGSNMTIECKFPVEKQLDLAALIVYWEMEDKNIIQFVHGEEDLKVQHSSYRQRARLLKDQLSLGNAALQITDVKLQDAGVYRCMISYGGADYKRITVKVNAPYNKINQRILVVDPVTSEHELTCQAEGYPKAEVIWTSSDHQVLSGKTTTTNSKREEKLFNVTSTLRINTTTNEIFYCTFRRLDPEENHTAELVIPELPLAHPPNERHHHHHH
Protocol: (§1) The pH-dependent binding affinity was further measured at various pH values, such as pH4, pH4.5, pH5.0, pH5.5, pH6.0, pH7.4. The measurement by ELISA was conducted similarly to the method described above. High-binding clear polystyrene 96 well plates were coated with 100 μl/well of a 0.5 μg/ml hPD-L1-his in high pH coating buffer and incubated overnight at 4° C. Then the coated plates were washed 3 times with shaking for 10s on an automatic plate washer with PBS+0.1% Tween 20 (Amresco). Then 200 μl of blocking buffer (1% BSA (Solarbio)+1% normal goat serum (Solarbio)+0.05% Tween 20 (Amresco)) was added to each well and the plates were then incubated for 2 hours at room temperature and washed 3 times as above. […] The plates were then washed once with 250 μl/well washing buffer at pH7.4, pH6.0, pH5.5, pH5.0, pH4.5 or pH4.0 and then 100 μl/well pH7.4 or pH5.5 washing buffer was added and the incubation was continued for 2 hours at RT with shaking. Afterwards, the plates was washed 3 times washing buffer at pH7.4 and 100 μl/well of a solution of HRP conjugated goat anti-hIgG HRP antibody (1:20000, Abcam) in pH7.4 dilution buffer was then added to each well of the plate. After that the plates were allowed to incubate for 60 min at room temperature followed by washing 3 times with 250 μl/well pH7.4 washing buffer. Finally, 100 μl/well of TMB was added to each well for 15 min and the reaction was terminated using 50 μl/well of 0.16M/L sulfuric acid. The plates were read on a Thermo Multiscan FC at 450 nm (see FIG. 23A-23F). The measurements were performed in triplicate.

[2] = biological target: T2, Recombinant Human PD-L1/CD274 Protein …; assay: ELISA on coated hPD-L1-his; bound at pH7.4, then 2 h at pH7.4
Protocol: as §1

[3] = biological target: T1, hPD-L2-Fc; assay: ELISA, plate coated with hPD-L2-Fc
Protocol: Briefly, high-binding clear polystyrene 96 well plates (Nunc) were coated with 100 μl/well of a 0.5 μg/ml human PD-L1-Fc (Acrobiosystems, Cat #PD1-H5258) or 100 μl/well of a 1 μg/ml hPD-L2-Fc (Acrobiosystems, Cat #PD2-H5251), respectively, in high pH coating buffer (0.16% Na2CO3+0.3% NaHCO₃, pH 9.8) and incubated overnight at 4° C. Then the plates were washed once on an automatic plate washer using washing buffer (PBS+0.1% Tween 20 (Amresco)). 200 μl of blocking buffer (PBS+1% BSA+1% normal goat serum+0.05% Tween-20) was added to each well and incubated for 2 hours at room temp. Then add 100 μl 2 μg/ml purified PD-L1 antibodies with dilution buffer (PBS+1% BSA+1% normal goat serum+0.01% Tween-20) and incubate for 1 hour at RT. The plates were then washed 3 times with washing buffer. 100 μl/well of a solution of HRP conjugated goat anti-mouse IgG antibody (1:20000, Abcam) in dilution buffer was then added to each well of the plate. After that the ELISA plates were allowed to incubate for 60 min at RT then the plates were washed 3 times with 250 μl/well washing buffer. Finally, 100 μl/well of TMB was added to each well for 15 min and the reaction was terminated using 50 ul/well of 0.16 M/L sulfuric acid. The plates were read on a Thermo Multiscan FC at 450 nM (see FIG. 6G).

[4] = biological target: T3, wild type human PD-L1-Fc protein (SEQ ID NO: 107) (human); assay: ELISA on captured PD-L1-Fc, as in Example 18A
T3 construct: Extracellular human PD-L1 (amino acid 19-238) with Fc fragment of human IgG1, expressed in 293T cells and used as culture supernatant; also called WT PD-L1; wild-type PD-L1
T3 sequence (chain, as listed by the source limits assumed): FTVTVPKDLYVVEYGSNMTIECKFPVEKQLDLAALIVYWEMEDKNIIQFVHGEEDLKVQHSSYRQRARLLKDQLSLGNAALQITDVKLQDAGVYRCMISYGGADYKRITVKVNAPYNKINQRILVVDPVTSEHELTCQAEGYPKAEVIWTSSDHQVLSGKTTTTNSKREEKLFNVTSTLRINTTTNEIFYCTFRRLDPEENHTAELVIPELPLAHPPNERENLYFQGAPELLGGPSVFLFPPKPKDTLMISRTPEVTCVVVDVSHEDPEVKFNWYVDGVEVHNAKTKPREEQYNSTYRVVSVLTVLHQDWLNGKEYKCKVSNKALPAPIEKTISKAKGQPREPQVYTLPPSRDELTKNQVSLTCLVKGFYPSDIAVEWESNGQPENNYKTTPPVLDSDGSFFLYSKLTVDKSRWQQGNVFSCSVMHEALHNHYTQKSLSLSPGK

[5] = biological target: T4, human PD-L1-Fc mutant E58A (human); assay: ELISA on captured PD-L1-Fc, as in Example 18A
T4 construct: Position 58 counts on native human PD-L1 (NP_054862.1); also called E58A mutant
T4 sequence (chain, as listed by the source E58A E58A limits assumed): as the sequence (chain, as listed by the source limits assumed) above, with E40A counted along it

[6] = biological target: T5, human PD-L1 expressed on cells (human, UniProt Q9NZQ7 19-290); assay: FACS, IFN-gamma stimulated HCC827 cells
T5 construct: whole, on cells; also called hPD-L1 expressed on HCC827; hPD-L1 on MC38/hPD-L1 cells
T5 sequence (Q9NZQ7 19-290): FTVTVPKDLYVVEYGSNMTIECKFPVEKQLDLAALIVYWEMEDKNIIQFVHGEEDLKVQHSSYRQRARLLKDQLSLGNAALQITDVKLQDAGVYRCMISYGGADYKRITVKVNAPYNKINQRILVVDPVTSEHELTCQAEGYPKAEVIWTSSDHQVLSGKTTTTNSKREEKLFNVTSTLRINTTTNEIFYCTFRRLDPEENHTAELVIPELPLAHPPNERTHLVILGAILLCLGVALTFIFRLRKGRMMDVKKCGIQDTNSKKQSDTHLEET
Protocol: Log phase IFN-γ stimulated (500U/ml for 2 days) HCC827 cells were collected and resuspended in blocking buffer (5% BSA+PBS). 2×10\hat{ }5 cells were added to each tube and then washed once with PBS (1500 rpm, 5 mins, RT). The 100 μl/tube serial diluted PD-L1 antibodies purified from hybridoma supernatant in blocking buffer were added into corresponding tubes and were incubated at 4° C. for 1 hr. The cells were then washed twice with 1 ml PBS, followed by adding 100 μl/tube of 2nd antibody (1:400 anti-mIgG (H+L)-PE, Cell signaling) in blocking buffer. The cells were incubated at 4° C. for 1 hr and then washed twice with PBS, followed by resuspending cells in 150 μl PBS for each sample. The cells were then transferred into FACS tube and the bindings of the antibodies to the cells were detected using flow cytometry (BD Accuri C6) (see FIG. 5A).

[7] = biological target: T2, Recombinant Human PD-L1/CD274 Protein …; assay: ELISA, purified mouse antibody on coated hPD-L1-his
Protocol: High-binding clear polystyrene 96 well plates (Nunc) were coated with 100 μl/well of a 0.5 μg/ml hPD-L1-his in high pH coating buffer and incubated overnight 4° C. Then plates were washed once on an automatic plate washer using washing buffer (PBS+0.1% Tween 20 (Sigma)). 200 μl of blocking buffer (PBS+1% BSA+1% normal goat serum+0.05% Tween-20) was added to each well and incubated 2 hours at room temp. Then add serially diluted purified antibodies with dilution buffer (PBS+1% BSA+1% normal goat serum+0.01% Tween-20) and incubate for 1 hour at RT. The plates were then washed 3 times using the method described above. 100 μl/well of a solution of HRP conjugated goat anti-mouse Fc antibody (Abcam) in dilution buffer was then added to each well of the plate. After that the ELISA plates were allowed to incubate for 60 min at RT then plates were washed 3 times with 250 μl/well washing buffer. Finally, 100 μl/well of TMB was added to each well and was terminated using 0.64M H₂SO₄. The plates were read on a Thermo Multiscan FC at 450 nM (see FIG. 3).

[8] = biological target: T6, Recombinant Mouse PD-L1/CD274 Protein (mPD-L1-his) (mouse, UniProt Q9EP73 19-238); assay: ELISA, 20 ug/ml antibody on coated mouse PD-L1 (his-tagged per text, mPD-L1-Fc per sheet title)
T6 construct: range 19-238; ACRO Biosystem PD1-M5220; also called mouse PD-L1-his
T6 sequence (Q9EP73 other isoform, or with tags, fused parts or gaps limits assumed): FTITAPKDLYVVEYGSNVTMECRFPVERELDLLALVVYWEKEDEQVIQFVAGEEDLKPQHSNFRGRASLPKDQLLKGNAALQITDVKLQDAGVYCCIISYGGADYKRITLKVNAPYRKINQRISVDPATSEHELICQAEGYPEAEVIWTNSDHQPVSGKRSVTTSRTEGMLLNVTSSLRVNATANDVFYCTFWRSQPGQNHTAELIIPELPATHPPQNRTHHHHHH
Protocol: High-binding clear polystyrene 96 well plates (Nunc) were coated with 100 μl/well of 1 μg/ml mouse PD-L1-his in high pH coating buffer and incubated overnight at 4° C. Then plates were washed once on an automatic plate washer using washing buffer (PBS+0.1% Tween 20 (Sigma)). 200 μl of blocking buffer (PBS+1% BSA+1% normal goat serum+0.05% Tween-20) was added to each well and incubated for 2 hours at room temp. Then add 20 μg/ml purified hybridoma mouse antibodies in dilution buffer (PBS+1% BSA+1% normal goat serum+0.01% Tween-20) and incubate for 1 hour at RT. The plates were then washed 3 times with 250 μl/well washing buffer. 100 μl/well of a solution of HRP conjugated goat anti-mouse Fc antibody (Abcam) in dilution buffer was then added to each well of the plate. After that the ELISA plates were allowed to incubate for 60 min at RT then plates were washed 3 times with 250 μl/well washing buffer. Finally, 100 μl/well of TMB was added to each well and the reaction was terminated using 0.64M H₂SO₄. The plates were read on a Thermo Multiscan FC at 450 nM (see FIG. 6F).

binding signal at pH5 as percent of the signal at pH7.4 [1] | binding signal at pH5.5 as percent of the signal at pH7.4 [1] | EC50 (read off the curve) [2] | binding result [3] | Mean OD450 [4] | OD450 nM of sample-1 [4] | OD450 nM of sample-2 [4] | % of binding of Ab to E58A mutant vs. that to WT PD-L1 [5] | Mean OD450 [5] | OD450 nM of sample-1 [5] | OD450 nM of sample-2 [5] | EC50 (read off the curve) [6] | EC50 (read off the curve) [7] | binding result [8] | Binder
< 50% | < 75% | ~0.06 µg/mL | – | – | – | – | – | – | – | – | – | – | – | 22C9-C (antibody, V domains shown, Mouse variable regions fused to a human IgG1 constant region; also called 22C9-chimeric; chimeric antibody 22C9) VH: QVQLQQSGAELVKPGASVKLSCKASGYTFTSYWMHWVWQRPGQGLEWIGMIHPNSDITNCNENFKHTVTLTVDKSSSTAYMQLSSLTSEDSAVFYCARSDGSSYWYFDVWGTGTTVTVSS VL: SIVMTQTPKFLSVSAGDRVTITCKAGQSVNNDVAWYQQKPGQSPKLLIYYASNRYTGVPDRFTGSGYGTDFTFTISTVQAEDLAVYFCQQDFSSPLTFGAGTKLELK
– | – | – | no binding (tested: 2 ug/ml) | 1.71 OD450 | 1.65 OD450 | 1.76 OD450 | 9.9% | 0.338 OD450 | 0.383 OD450 | 0.292 OD450 | ~0.07 µg/mL | ~0.006 µg/mL | no binding (tested: 20 ug/ml) | 23F11 (antibody, V domains shown, also called mouse monoclonal antibody 23F11; clone 23F11) VH: QVQLQQPGAELVKPGASVKLSCKASGYSFTTYWMHWVKQRPGQGLEWIGMIQPNSGGTKYNEKFKKKATLTVDKSSTTASMELSSLTSEDSAVYYCARGAGTVDYFDYWGQGSTLTVSS VL: DIVLTHSPVSLAVSLGQRATISCRASESVDIYGNSFMHWYQQKPGQPPKLLIYRASNLESGIPARFSGSGSRTDFTLTINPVEADDVATYYCQQSTEDPYTFGGGTKLEIK
– | – | – | no binding (tested: 2 ug/ml) | 1.49 OD450 | 1.43 OD450 | 1.54 OD450 | 69.6% | 1.04 OD450 | 1.06 OD450 | 1.01 OD450 | ~0.04 µg/mL | ~0.01 µg/mL | no binding (tested: 20 ug/ml) | 4B6 (antibody, V domains shown, Mouse monoclonal purified from hybridoma; also called mouse monoclonal antibody 4B6) VH: EVQLQQSGPELVKPGASVKISCKASGYVFTDYYMNWVKQSHGKSLEWIGDINPNNGGTSYNHKFKGKATVTVDKSSRTAYMELLSLTSEDSAVYYCVKWGDGPFAYWGQGTLVTVSA VL: DIVMTQSQKFMSTSVGDRVSITCKASQNVGAAVAWYQQKPGQSPKLLIYSASNRYTGVPDRFTGSGSGTDFTLTISNMQSEDLADYFCQQYSNYPTFGSGTKLGIK
